Results on one substance are retold here after patent US20120308566A1.

The target of assay [1] is huIL-17RA-FLAG-polyHis (human) (UniProt Q96F46). Description: multiplexed binning, huIgG row/col I (IL-17RA on AMH22/AML22 bead).
Assay [2] shares this target. Kind of assay: multiplexed binning, huIgG row/col K (IL-17RA on AMH14/AML14 bead).
The target is the same in assay [3]. Description: multiplexed binning, huIgG row/col L (IL-17RA on AMH19/AML19 bead).

As to huIgG (antibody), the normalized MFI is -72 in assay [1], -235 in assay [2] and -36 in assay [3].
